Assay results from the NTF2 design screens of Basanta et al. (2020).

Assay: protease stability score; higher = more stable; yeast display proteolysis, trypsin and chymotrypsin;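 also: relative to predicted unfolded state with 0 unfolded-like and 1 meaning tenfold more protease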

| Sequence | protease stability score |
| --- | --- |
| DEDTELSKHFDDVFAEYVETGDEHSLRHLMDPNTRILVNGVDLVGWELVLDHLDRHLKEMRIKRVTTHEMRIYGDKVTIHSKLKMHIDGRDVDTDTEIIVKKVDGKWIMHFVNLH | 2.25 |
| SEDQREIKDFFKILSKALTTGDEEITSAMMDPHVRMDYNGKEHHGRDFLTELMKRADHWEHRLEVRSVRIIGDKVDVEGHMILHILIGDKEIRVRVDLDIELWKVDGRWIVKEITIK | 1.04 |
| DDRKEMSEEASEIFLHLLATGDERTERKLLDPHVRLIIGDKHLHGREEFVRFKHEEMRDLGVTNVEVREKDVKVYDGKIELHGHFNVNGKWVEIHVIAEKFNGRWILKRVNFH | 0.875 |
| SEEEKLSRELSKLILHYLHTGDWDQITELADPNVRIHDTINGRDNDNHGWEMLIALMEQLGVDVRRFHHIRVIGDKVHMEVELNFNGRTVHAEWTFKVVDGRMKSIEIRTK | 1.34 |
| SEEEEEIERYVQHLVHNILTGDWEMIQELADPNAKIDIDGRHFHGREQFVDLMLRLIESLGIDHLRLTHVRIQGDYMELHVEVHVGDKRVELESFATKIDGRWFVKSFTKR | 1.97 |
| DERDELVEIVFRLYLRLLTTGDEQEWHHLADPDTRLHIGDKDFHGRENVNKHRRDNLERVKGIKLRDVKITQVHLIDGVLHIDIRLDVEYDGRRTELKVRVISEKVDGKWFIKSIIIE | 1.44 |
| DEEEEDIEKFFKEWTRNVLTGNWERLRELADPHAKAVVDGVETHGMESLDKLIDESERKLGVDHTHLESVHVQGEWIHFHLRIIIGDKYLKLHIHTLVIDGRVKSMNVEFHSD | 1.16 |
| DEDRERSEEIAKLILRSWLTGDERLLEELFDPHARVHINGKEFHGMEKFTEFSRHIRMDRVIIHDVKLIGDKMHIEQEIIITFDGRHLHVRSIIIVLKVNGQWVSRSLEIH | 1.16 |
| SEDQEESEKFLKDLIRVILTGNEESLMKLADPHARFHIGDKTYIGWDKWVRMLSERVRDLGIRIEIRVHDFHVYNGVAENDHRHHVHFENHEYNHIMILHDDKINGKWTIRTLVIK | 1.13 |
| DEIEKELTDVFWEWLHLHITGDEDRLRDLMDPDVRLIYGDKTAVGREEFEKMWRELRHRFDHIRNVQIHDKRIVGNKLEMDFNFDHEVNGRREHTRVKIVLITINGKLHAFRIEVE | 1.4 |
| TESEEDAEWAFRILEHVLETGDEHLLRVLLDPHVRVHIDGRNIHGRENVIRELTEIRIHVEMHLEHVDLQGDKMHIDLRVHIIIIFNGQEKRRTHRMEMIVFKYDGKWFINEIHFH | 1.37 |
| DQEHEDARNVLHLLIRSWRTGDEHTSEHLMDPDVKIIYNGRVHVGREDAHRFVEEARVHHIVLHDSRVQGDYIRLDIRVEGEINGRRDRTEVDMVVLKINGRWMIQSIKFK | 1.38 |
| QEELDIAREMIKMWTHHLETGDEEVTKHLADPTTRFIIDGVTYHGMHNTVRLWLEIRSHSRIRIRFVEVQGNKVNSDVELEYDLIVGEKTDTIIRRSHLYLHKVDGRWRIKEIEFR | 1.12 |
| DEEEHIARHIFEHFITWLLTGDEEVLKDLADPNVRLDINGRHVVGREEFRRWLKEDLEHLRIHDMDLRRVRVQGNKMDLDVQVDGIVNGQHRHHNTRLIFEKVDGRWLLRSIIVK | 2.16 |
| SEDEEVMKRAHELSARVMKTGDEETFRELADPDVRRNVNGVVRHGMENVIHLLRILFDEIRPRHFELTHMEVQGDKVRMEIRNDVRIGDKEVQLRVILIASKVNGRWHLQEVHVE | -0.496 |
| RDEEEYAHRVLELWRFILETGDEDTLYELADPNVRFKFLQGNKEIHRHGRERMVEEIRTRREELGVKHIHLEHVEVWNGVVHLRVVVHFNGKELRSRIIIVVIDGVIKEIEIREE | 1.04 |
| SEDEEALKKAIDLLFESLLTGDERELEKLADPNYRMEVNGKEIHGRELFSKTMIDILQRLGIDHIDFRIEHDETQGDKVIIEGKLIFKVGDKHIEIKSRLIVLKVDGQWILRHSRMH | 2.05 |
| SEDEKLDRDLHDLFRKLWETGDFDSLLKLADPTARFIYDFENHSEEEHGMHVYLKRLTERLRFFKGLQIEVDVIHVVNGVSHFELTMHIDGVRIKVEIEVITIDGRVREMRVRDN | 0.738 |
| TDDEEIWKIAIKMLRSAMHTGDEDTIKHLLDPNVRIEINGREIIGREIYAKHLREIRVDVERWEDHHIEVQGEFMHVKGRVVLTEEINGQEVREDVKLHVLVLKIDGQWRITSLYFR | 0.754 |
| DEREKEHETQIRLLIHAIQTGDESMFHKMMDPNVRIQVGDKHIHGREFFVEIFKKLIDRYPGIQLHIRIHSIRFQGEKVTIDERLEIIVGDKEMRFETEIFSQKVNGRWLIEFERIQ | 0.579 |
| DEEEKLSQHMLKEWFEWTITGDEDTLAKMADPNVRVHIGDYHLHGRESMLKWLHDFIRDLGVERIDFHLRDRTVQGNKARLHVVENVNGKSTETEVIIDVIDGRMKLVEIRIR | 0.198 |
| QEEEEFVRKFVHEVIRALMTGDEHRMHELLDPHVISSRHIGDKHVHYHGREEVLRHLHEWLTHLRIKSLEIRSHKAFDGRMIVHGTLFGQQGDKDVEFEVIIDLEVINGRIKHFHVELR | 1.32 |
| DEEHKTSYKALEQLIRVLRTGDERLMSELADPHVRMDFDGRRHHGRESMKREFLELGIDHVHLDRWNLIGNKVLSDGHMRFDGRSMRVEIIAYKVDGRWVLEEVRFE | 0.03 |
| SEDEHLAERMVHLWNKILLTGNEEIMEKLFDPNTRVIVGDKEYVGREVFLHLVKEIRKRADHIEIRIQHLEVQGDKVHLHGILIFRQGDKSDEQRVHLHSEKVNGRWFLREFRFE | 2.3 |
| DEDERTMRIAFEMFKHNLETGDEDVIRRFVDPHVKIDIDGVHLHGWEVMYERIMRFDHVDIRLRDIRTFNGRAEIDGEILVEINGVSIEKRLIIHSEKIDGRWILRSHRII | 0.89 |

| Sequence | protease stability score |
| --- | --- |
| DEDTRKIYHWAELIVELLMTGDEDILHELADPDVKVHINGVTLHGREEADKFLEEWLRRFKNIQIRIRRITVINGRVDVESEVNVGDKRKDSRIHATVVNGRWKIISMDDH | 1.42 |
| SEENEVIHRVIYYWIRAMKTGDEHLVSRLFDPNARHEIDGVDHVGWEEILKFFRRFDHLHHFHVNHIESHGDKIILDGRVDGEVNGQHLRFHVEIISLKVNGRWINQSEHVH | 1.81 |
| SEDEDNMHEFFRIWSRVQETGDEEAMLKLMDPNVRTDINGVELHGREEFEKELHRLIFEWGFDRFVVHIEHEDIFNGRIHVRSRVIYGDKEVHVIIHVYKVNGQWRVEELRFE | 1.41 |
| DTVTEMDRHIFEHLLHLWKTGDWKRMTELFDPHARSVFNGRELHGRKSMQEAIEIIVRRADHIELHIRSLDVVDGQIDLDGELILIVGDKKIVHETHIHIHVYNGQVTELSFQIV | 0.585 |
| DEDEHLVRYLVEELIKFEQTGNEDEWNRLADPNVRIEINGVENHGREQYRKAFYEWRIHSLTVHHIRIDVQGEKALSIVDTETDGEYNGRQTRVKTNLIIHTKKVDGRWLVHSLVIKTE | 1.25 |
| SEEDELNHRISHLLTRMRRTGDEDTWHRLADPNMRLEINGVISHGREEALRILSEVDDILGIDRFSVHLDRYTWDGNYIHNDMTFEINGRDLRVHVDSLVINGRMHHERVRVE | -0.516 |
| DEEEKLARKIVEDWVRAMTTGDEDDLRRLADPNVRHDINGVELHGMDEWLRVLLERGYEIRIQFRHIRVYDGRVEIDIDLEIRIGDKHHHHHVHLIFEKIDGRWRMKSEKTD | 1.9 |
| DEHEEEAIRMLRLIFFLLHTGDWEVMHELFDPHARFTINGRRIHGMEEWLKFLREIRIEDSDIHVKRIDIQGDKMRIKGVVHLEGNVNGRREHTELHIDVHLEKVNGRWIIRLIEFK | 2.35 |
| DDEEHDARRAVELHNEIERTGDEHEMHRFADPDVRIFIGDKELHGRETWSKYLSHVLERLGINHLHITIEHLHLQGNKMRLHGTIRMKIGDKRYEIHVEVYITKINGRWHLHTIRND | 0.363 |
| DERHKHDIEVAKEFLEVERTGDEHLLRRLADPHVLSNINGVHNHGRETVIEFWREWFEEWRVTEIKIRHLDAYDGRVRIEGRMRVIYDGREHTIDSEFRLVVVNGRLKSMELILH | -0.043 |
| EEEKEIAEELIRRIRESLRTGDEDLKHKLADPNVRHIFNGRNNHGREEMLRTLEELIKQFGVENIDIELHDWDHVDGRLHIHVRVRYGDYMMHLRIEAEKVNGRWQSETVELR | 1.23 |
| DHEEEIALEVAEKILKLWLTGDEEIMMELFDPNTRVEINGKKVHGRENVMHILHHEWREIRLKDLRIKRHESVGNKVHLDGRVNGQINGRKHSIHVRIDIEVVDGRITNISIEHS | 1.44 |
| DELEDDSRRAMETLIEIEKTGDWDLMYQLADPHVKLDINGRIIHGRDEFERRIHEHLTELGIKHHHVKHFQIRIVDGRMEVRLDGILRFNGKDLDVEIVLIVLKVNGRWLLEHSSVKYK | 1.38 |
| DHHEEIMVTIMELLVRWLETGDEKSLVELLDPDVRHDVNGVDLHGREHVSRWMREHLERYDHLEVEITHIEVQGDKVHLDGTLILIFNGRNVVMKVHIHTIIVNGRAHELRFRTE | 0.698 |
| DEDTDWIREMHRRHTEALRTGDEDTLRDLMDPHVRIFQGDKIHIGMHDLAKFLKEWRIKEIRVDIKHIESQGDKLRFSGDVEVHFEFNGKEVDLKLKALIVIVKINGKWVFKEIHHI | 0.862 |
| DDEERLIKHLAERWMKDLHTGNEDSLEEMADPNWRLRQIVNGQEVRDIGREKMIEVIREIEKKLGIDRIELHVHKVEIQGDKAHLNTEIRYNGQSSLHEIRLTIINGRLHSVTIHVK | 0.85 |
| TEEEKHLRELTDRVLHEEETGDWRTLKELADPNVRFDYRYGDYFFHSHGREDVVKHLRHVFQEMRIERVHVKDRKNYNGKVEIHTEIHGVYNGVRFRTEVTIKIVIIDGRIHSHIWEIN | 0.305 |
| DEDKKLVEWVLRMLFEALRTGDEHALNNLFDPNVRIEQGDKRFHGREELIRLFHILGIDHIIIEDKDIKVFDGQLEIDGREVLIFDGRRFEIDMKIYIHKINGRWHVKSVHKD | 1.78 |
| NEDDHIMEELTRIFIQNLRTGNEEEWAKYADPDTRLDFNGVDIIGRESILHWLKHMLTELRFTKIIFHHINAVNGRIHLDVEQHVEVGDKSQTIRSEIHIRVVNGVIKREYYRYK | 0.092 |
| SETEKELHEFFRLWIQLFLTGDFDELKHYIDPNVRSVINGRQLIGMEEVWRWREEARIKDIEIKDVRVQGDKIEADGVLEGTINGVDRRTDTHIQLNVVNGVAKHTFIRIR | 1.45 |
| DEEHHDLQEFFERLKRHWETGDWKEITKNFDPNVKERYGDFEVHGREEAIRKAKEMRYNDMDIRHRRVIDGRAYLHTEMDGNFDGRERRFEVEMIITKIDGVWRIKHVTFK | 1.06 |
| DEREEIAKHLLDLLMHFSKTGDWKKIEDLFDPNTRIHINGVEHVGMEEIARHISEWRIHSIHIKHLDYQGEFIHMDGELDVEVNGRRHKTRMHIIVVKYNGRWLIHHIEVH | 2.03 |
| HEEEEHSIRILEEWWRALLTGDEDRLKELMDPHVLLLSDVGDKNHIHIGREEAFRFWHEFVRQVKNMTLRIDQVHVQGDKVHLRGTLLINGRERDIRIDILIINGKVREVRIKII | 2.45 |
| EEEDDVLHEFLREFIHFFSTGDFDHIIEMLDPNTQQHVGDKINIGREEWKHWLKFHLDRLGVDQVRVHVRRVRFFNGRVELNIELRQGDYVFDARILALKVDGRWLLESVEIK | 2.82 |
| HDLEKLVKFWYELWLRLLLTGDEEIFSHLADPNARLEVDGVEFVGREQVLKDLKRRMEEMRLTSMIITHVDWQGEKNRTEGITHGRINGVDITSETHLVLVIVNGRIRSIRIEIR | 1.54 |
